From patent publication US10450368

Experiments:
CH0505_CON D7gp120/293i = assay: ELISA
CH505.w30.12D8gp120 = assay: ELISA
CH505w020.14D8gp120 = assay: ELISA
CH505w030.20D8gp120/293F = assay: ELISA
Centromere B = Centromere B (UniProt P07199); assay: AtheNA, Ab 6.25 ug/ml
Histones = assay: AtheNA, Ab 6.25 ug/ml
Jo-1 = Jo-1 (UniProt P12081); assay: AtheNA, Ab 6.25 ug/ml
SSA = assay: AtheNA, Ab 6.25 ug/ml
SSB = SSB (UniProt P05455); assay: AtheNA, Ab 6.25 ug/ml
Scl-70 = Scl-70 (UniProt P11387); assay: AtheNA, Ab 6.25 ug/ml
Scl-70, sequence (P11387 whole entry): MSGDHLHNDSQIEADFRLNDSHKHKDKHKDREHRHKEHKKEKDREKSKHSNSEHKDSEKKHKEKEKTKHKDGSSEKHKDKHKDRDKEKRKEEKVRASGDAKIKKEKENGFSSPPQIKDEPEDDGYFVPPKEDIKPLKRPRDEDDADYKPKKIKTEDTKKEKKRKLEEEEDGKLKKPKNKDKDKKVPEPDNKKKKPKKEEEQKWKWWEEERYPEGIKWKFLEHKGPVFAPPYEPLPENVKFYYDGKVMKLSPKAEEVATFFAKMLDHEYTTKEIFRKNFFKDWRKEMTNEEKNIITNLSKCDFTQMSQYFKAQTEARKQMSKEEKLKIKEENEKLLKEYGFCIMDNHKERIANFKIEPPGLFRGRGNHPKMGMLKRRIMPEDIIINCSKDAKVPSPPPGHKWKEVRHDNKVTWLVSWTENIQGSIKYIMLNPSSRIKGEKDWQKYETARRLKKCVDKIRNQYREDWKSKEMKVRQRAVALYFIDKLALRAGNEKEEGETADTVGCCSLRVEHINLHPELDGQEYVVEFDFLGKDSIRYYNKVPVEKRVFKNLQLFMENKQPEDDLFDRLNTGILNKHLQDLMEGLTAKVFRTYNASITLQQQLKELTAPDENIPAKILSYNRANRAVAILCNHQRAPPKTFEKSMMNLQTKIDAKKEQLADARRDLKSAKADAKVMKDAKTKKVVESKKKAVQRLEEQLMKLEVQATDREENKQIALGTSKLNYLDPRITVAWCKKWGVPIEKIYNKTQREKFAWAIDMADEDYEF

Sm (Smith antigen) = assay: AtheNA, Ab 6.25 ug/ml
CH505.M10D8gp120 = assay: direct-binding ELISA
CH505.M11D8gp120/293F = assay: direct-binding ELISA
CH505.M19D8gp120 = assay: direct-binding ELISA
CH505.M21D8gp120/293F = assay: direct-binding ELISA
CH505.M5D8gp120293F = assay: direct-binding ELISA
CH505.M7D8gp120/293F = assay: direct-binding ELISA
CH505.M9D8gp120/293F = assay: direct-binding ELISA
[1] = target: CH505.TF mutant gp120 M20 (HIV-1); assay: direct-binding ELISA
[2] = target: CH505.TF mutant gp120 M6 (HIV-1); assay: direct-binding ELISA
[3] = target: CH505.TF mutant gp120 M8 (HIV-1); assay: direct-binding ELISA
[4] = target: CH505_w137V201B12.D11gp120 (HIV-1); assay: direct-binding ELISA
[5] = target: CH505_w137V209C12.D11gp120 (HIV-1); assay: direct-binding ELISA
[6] = target: CH505w136.B10D8gp120 (HIV-1); assay: direct-binding ELISA
[7] = target: CH505w136.B12D8gp120 (HIV-1); assay: direct-binding ELISA
[8] = target: CH505w136.B18D8gp120 (HIV-1); assay: direct-binding ELISA
[9] = target: CH505w136.B20D8gp120 (HIV-1); assay: direct-binding ELISA
[10] = target: CH505w136.B27D8gp120 (HIV-1); assay: direct-binding ELISA
[11] = target: CH505w136.B29D8gp120 (HIV-1); assay: direct-binding ELISA
[12] = target: CH505w136.B2D8gp120/293F (HIV-1); assay: direct-binding ELISA
[13] = target: CH505w136.B36D8gp120 (HIV-1); assay: direct-binding ELISA
[14] = target: CH505w136.B3D8gp120/293F (HIV-1); assay: direct-binding ELISA
[15] = target: CH505w136.B4D8gp120 (HIV-1); assay: direct-binding ELISA
[16] = target: CH505w136.B5D8gp120 (HIV-1); assay: direct-binding ELISA
[17] = target: CH505w136.B8D8gp120 (HIV-1); assay: direct-binding ELISA
[18] = target: CH505w160.A1D8gp120 (HIV-1); assay: direct-binding ELISA
[19] = target: CH505w160.C11D8gp120 (HIV-1); assay: direct-binding ELISA
[20] = target: CH505w160.C12D8gp120 (HIV-1); assay: direct-binding ELISA
[21] = target: CH505w160.C14D8gp120 (HIV-1); assay: direct-binding ELISA
[22] = target: CH505w160.C2D8gp120 (HIV-1); assay: direct-binding ELISA
[23] = target: CH505w160.C4D8gp120 (HIV-1); assay: direct-binding ELISA
[24] = target: CH505w160.D1D8gp120 (HIV-1); assay: direct-binding ELISA
[25] = target: CH505w160.D5D8gp120/293F (HIV-1); assay: direct-binding ELISA
[26] = target: CH505w160.T2D8gp120 (HIV-1); assay: direct-binding ELISA
[27] = target: CH505w160.T4D8gp120/293F (HIV-1); assay: direct-binding ELISA
[28] = target: HIV-1 CH505 transmitted/founder gp120 Env (HIV-1); assay: competition ELISA, blocking of CH235 binding to CH505 TF gp120
[29] = target: HIV-1 CH505 transmitted/founder gp120 Env (HIV-1); assay: competition ELISA, blocking of CH236 binding to CH505 TF gp120

Jo-1, sequence (P12081 whole entry): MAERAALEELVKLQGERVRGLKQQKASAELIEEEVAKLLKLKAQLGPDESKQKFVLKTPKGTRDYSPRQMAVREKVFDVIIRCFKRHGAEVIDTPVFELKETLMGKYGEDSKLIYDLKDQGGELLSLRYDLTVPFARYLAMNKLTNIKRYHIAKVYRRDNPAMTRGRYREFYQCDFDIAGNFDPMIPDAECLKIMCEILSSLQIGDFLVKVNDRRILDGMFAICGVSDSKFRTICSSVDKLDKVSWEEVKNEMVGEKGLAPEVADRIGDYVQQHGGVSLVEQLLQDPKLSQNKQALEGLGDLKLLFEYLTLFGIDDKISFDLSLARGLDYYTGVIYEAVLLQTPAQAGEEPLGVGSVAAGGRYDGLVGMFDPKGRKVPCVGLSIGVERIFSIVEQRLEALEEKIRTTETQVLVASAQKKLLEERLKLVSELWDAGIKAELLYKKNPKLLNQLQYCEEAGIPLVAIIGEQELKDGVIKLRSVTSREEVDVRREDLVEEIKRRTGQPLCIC
SSB, sequence (P05455 whole entry): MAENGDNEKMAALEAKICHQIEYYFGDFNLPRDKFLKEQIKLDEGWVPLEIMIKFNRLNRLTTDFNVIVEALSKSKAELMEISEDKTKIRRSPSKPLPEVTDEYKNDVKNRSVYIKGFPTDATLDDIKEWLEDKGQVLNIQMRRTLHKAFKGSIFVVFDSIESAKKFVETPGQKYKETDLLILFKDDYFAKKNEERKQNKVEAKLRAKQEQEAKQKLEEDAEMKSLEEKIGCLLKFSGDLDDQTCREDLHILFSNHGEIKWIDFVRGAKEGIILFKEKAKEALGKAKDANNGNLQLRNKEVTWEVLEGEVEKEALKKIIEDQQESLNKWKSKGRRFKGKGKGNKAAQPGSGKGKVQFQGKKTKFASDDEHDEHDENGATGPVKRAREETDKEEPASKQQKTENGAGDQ
Centromere B, sequence (P07199 whole entry): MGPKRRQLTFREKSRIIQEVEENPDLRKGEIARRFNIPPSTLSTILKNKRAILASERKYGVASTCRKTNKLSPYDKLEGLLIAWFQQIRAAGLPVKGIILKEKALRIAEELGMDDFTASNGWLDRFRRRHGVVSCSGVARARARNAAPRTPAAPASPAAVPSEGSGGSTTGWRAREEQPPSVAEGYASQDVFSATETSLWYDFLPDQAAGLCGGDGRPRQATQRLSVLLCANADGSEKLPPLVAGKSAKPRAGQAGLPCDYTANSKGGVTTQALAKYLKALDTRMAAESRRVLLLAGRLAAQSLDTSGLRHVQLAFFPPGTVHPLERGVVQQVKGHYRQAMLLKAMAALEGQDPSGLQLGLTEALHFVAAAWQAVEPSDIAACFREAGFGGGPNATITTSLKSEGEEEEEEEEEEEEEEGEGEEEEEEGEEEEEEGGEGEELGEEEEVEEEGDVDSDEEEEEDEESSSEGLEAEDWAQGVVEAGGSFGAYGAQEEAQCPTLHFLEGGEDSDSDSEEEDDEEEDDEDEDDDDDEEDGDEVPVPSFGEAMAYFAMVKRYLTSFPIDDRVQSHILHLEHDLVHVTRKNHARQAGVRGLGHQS

**Q.** For CH106 (antibody), which LogAUC (CH0505_CON D7gp120/293i) is on record?
**A.** Its LogAUC is 11.9.

**Q.** What about the LogAUC (CH505.w30.12D8gp120) of the same substance?
**A.** Its LogAUC is 11.8.

**Q.** What about the LogAUC (CH505w020.14D8gp120) of the same substance?
**A.** The LogAUC was 11.2.

**Q.** What about the LogAUC (CH505w030.20D8gp120/293F) of the same substance?
**A.** Its LogAUC is 7.25.

**Q.** What about the AtheNA signal (relative luminescence units) (Centromere B) of the same substance?
**A.** Its AtheNA signal (relative luminescence units) is 1.

**Q.** What about the AtheNA signal (relative luminescence units) (Histones) of the same substance?
**A.** Its AtheNA signal (relative luminescence units) is 2.

**Q.** What about the AtheNA signal (relative luminescence units) (Jo-1) of the same substance?
**A.** Its AtheNA signal (relative luminescence units) is 4.

**Q.** What about the AtheNA signal (relative luminescence units) (SSA) of the same substance?
**A.** Its AtheNA signal (relative luminescence units) is 10.

**Q.** What about the AtheNA signal (relative luminescence units) (SSB) of the same substance?
**A.** Its AtheNA signal (relative luminescence units) is 6.

**Q.** And the AtheNA signal (relative luminescence units) (Scl-70)?
**A.** Its AtheNA signal (relative luminescence units) is 2.

**Q.** And the AtheNA signal (relative luminescence units) (Sm (Smith antigen))?
**A.** The AtheNA signal (relative luminescence units) was 5.

**Q.** What about the LogAUC (CH505.M10D8gp120) of the same substance?
**A.** Its LogAUC is 11.8.

**Q.** What about the LogAUC (CH505.M11D8gp120/293F) of the same substance?
**A.** Its LogAUC is 12.8.

**Q.** What about the LogAUC (CH505.M19D8gp120) of the same substance?
**A.** The LogAUC was 12.2.

**Q.** What about the LogAUC (CH505.M21D8gp120/293F) of the same substance?
**A.** Its LogAUC is 11.5.

**Q.** What about the LogAUC (CH505.M5D8gp120293F) of the same substance?
**A.** The LogAUC was 8.37.

**Q.** What about the LogAUC (CH505.M7D8gp120/293F) of the same substance?
**A.** The LogAUC was 11.

**Q.** What about the LogAUC (CH505.M9D8gp120/293F) of the same substance?
**A.** The LogAUC was 11.

**Q.** What about the LogAUC [1] of the same substance?
**A.** The LogAUC was 10.7.

**Q.** And the LogAUC [2]?
**A.** The LogAUC was 12.6.

**Q.** And the LogAUC [3]?
**A.** The LogAUC was 10.2.

**Q.** And the LogAUC [4]?
**A.** The LogAUC was 12.5.

**Q.** And the LogAUC [5]?
**A.** The LogAUC was 12.2.

**Q.** What about the LogAUC [6] of the same substance?
**A.** Its LogAUC is 8.97.

**Q.** What about the LogAUC [7] of the same substance?
**A.** Its LogAUC is 11.9.

**Q.** What about the LogAUC [8] of the same substance?
**A.** The LogAUC was 13.3.

**Q.** And the LogAUC [9]?
**A.** The LogAUC was 12.1.

**Q.** And the LogAUC [10]?
**A.** Its LogAUC is 11.2.

**Q.** And the LogAUC [11]?
**A.** Its LogAUC is 12.

**Q.** And the LogAUC [12]?
**A.** Its LogAUC is 12.7.

**Q.** And the LogAUC [13]?
**A.** The LogAUC was 13.1.

**Q.** And the LogAUC [14]?
**A.** Its LogAUC is 12.6.

**Q.** And the LogAUC [15]?
**A.** The LogAUC was 11.8.

**Q.** What about the LogAUC [16] of the same substance?
**A.** The LogAUC was 10.9.

**Q.** What about the LogAUC [17] of the same substance?
**A.** The LogAUC was 11.7.

**Q.** What about the LogAUC [18] of the same substance?
**A.** Its LogAUC is 7.6.

**Q.** What about the LogAUC [19] of the same substance?
**A.** Its LogAUC is 8.15.

**Q.** And the LogAUC [20]?
**A.** The LogAUC was 12.2.

**Q.** And the LogAUC [21]?
**A.** The LogAUC was 6.94.

**Q.** What about the LogAUC [22] of the same substance?
**A.** The LogAUC was 9.29.

**Q.** And the LogAUC [23]?
**A.** Its LogAUC is 6.8.

**Q.** And the LogAUC [24]?
**A.** Its LogAUC is 7.06.

**Q.** And the LogAUC [25]?
**A.** The LogAUC was 5.64.

**Q.** What about the LogAUC [26] of the same substance?
**A.** Its LogAUC is 6.16.

**Q.** And the LogAUC [27]?
**A.** Its LogAUC is 12.3.

**Q.** What about the IC50 [28] of the same substance?
**A.** The IC50 was 4.3 µg/mL.

**Q.** What about the IC50 [29] of the same substance?
**A.** Its IC50 is 6.8 µg/mL.
